Legend:
[1] = target: T1, MBP-BFP-TLS-GFP-6xHis (TLS/FUS) (UniProt P35637 1-526); assay: fluorescence anisotropy; 100 nM RNA; Anisotropy: 5 mM Tris-HCl pH 7.6, 25 mM NaCl, 0.1% CHAPS, 2.5 mM glucose, 0.5 mM DTT, 25 C, 100 nM TAMRA-RNA; FRET buffer not in material; conditions: protein: recombinant; tags: N-term MBP, TagBFP; C-term TagGFP2, 6xHis; label: TAMRA
[2] = target: T1, MBP-BFP-TLS-GFP-6xHis (TLS/FUS); assay: FRET; Anisotropy: 5 mM Tris-HCl pH 7.6, 25 mM NaCl, 0.1% CHAPS, 2.5 mM glucose, 0.5 mM DTT, 25 C, 100 nM TAMRA-RNA; FRET buffer not in material; conditions: protein: recombinant; tags: N-term MBP, TagBFP; C-term TagGFP2, 6xHis
[3] = target: T1, MBP-BFP-TLS-GFP-6xHis (TLS/FUS); assay: as above; conditions: protein: recombinant; tags: N-term MBP, TagBFP; C-term TagGFP2, 6xHis; remark: listed apart in the source
[4] = target: T1, MBP-BFP-TLS-GFP-6xHis (TLS/FUS); assay: as above; conditions: protein: recombinant, tags: N-term MBP, TagBFP, C-term TagGFP2, 6xHis

T1 sequence (P35637 whole entry): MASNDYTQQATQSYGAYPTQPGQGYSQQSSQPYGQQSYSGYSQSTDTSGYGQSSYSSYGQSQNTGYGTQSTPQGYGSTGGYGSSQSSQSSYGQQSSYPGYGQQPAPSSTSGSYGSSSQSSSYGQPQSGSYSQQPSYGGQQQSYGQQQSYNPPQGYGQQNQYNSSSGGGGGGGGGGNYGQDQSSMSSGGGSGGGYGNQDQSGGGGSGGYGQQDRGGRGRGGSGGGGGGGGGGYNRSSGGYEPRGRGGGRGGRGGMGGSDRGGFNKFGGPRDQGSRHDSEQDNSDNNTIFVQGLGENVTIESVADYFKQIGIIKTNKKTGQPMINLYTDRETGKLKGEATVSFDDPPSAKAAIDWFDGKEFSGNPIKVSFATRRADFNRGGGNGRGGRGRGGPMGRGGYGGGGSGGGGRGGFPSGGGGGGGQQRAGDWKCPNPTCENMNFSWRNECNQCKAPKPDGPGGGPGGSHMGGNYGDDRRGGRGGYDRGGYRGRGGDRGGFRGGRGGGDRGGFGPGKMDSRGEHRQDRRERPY

Binder: UUUUUUUUUUUUUUUUUUUUUUUUUUUUUUU (ssRNA) [TAMRA-U31]
- binding result [1]: binds

Binder: GAGGGU (ssRNA) [R6]
- binding result [2]: binds

Binder: GTTAAGAGGGTAC (ssDNA) [D13]
- binding signal [3]: 0.0175 ± 0.0018 |dE| FRET

Binder: GTTAAGAGGGTACGGTGGTTTGATGACACTG (ssDNA) [D31]
- binding signal [3]: 0.0594 ± 0.0039 |dE| FRET

Binder: CGGTGGTTTGATGACACTG (ssDNA) [D19]
- binding signal [3]: 0.0309 ± 0.0025 |dE| FRET

Binder: CGGUGGUUUGAUGACACUG (structured_RNA) [R19 (3'-pncRNA)]
- binding signal ([4]; stem-loop): 0.055 ± 0.0099 |dE| FRET

Binder: GUUAAGAGGGUAC (ssRNA) [R13 (5'-pncRNA)]
- binding signal [4]: 0.0663 ± 0.0091 |dE| FRET

Binder: GUUAAGAGGGUA (ssRNA) [R12]
- binding result [2]: binds
